Measurements as given in US20190225703A1.

Biological target: cynomolgus CD73 expressed at the cell surface (cynomolgus)
Assay: flow cytometry titration on cynomolgus-CD73-expressing cell line

EC50: 1.15 µg/mL
fold higher concentration (EC50) than 7H10: 4 fold
Substance: antibody AD2 (Biolegend Corp, product ref. 344004)
